Data reported in patent publication US20260008857A1 (FLAGSHIP PIONEERING INNOVATIONS VI, published 2026).
Substitutions are numbered along the chain they refer to. Like-named read-outs stand apart in the source and are kept apart here.

What was measured:
[1] = target: T1, human IL-4Rα (interleukin 4 receptor subunit alpha) (human, UniProt P24394 26-232, limits assumed); test: SPR, Carterra LSA non-regenerative capture kinetics; antibody captured on goat anti-human polyclonal lawn, human IL-4Rα as analyte, 25 C, 1:1 model; average ± SD of technical replicates
T1 sequence (looked up): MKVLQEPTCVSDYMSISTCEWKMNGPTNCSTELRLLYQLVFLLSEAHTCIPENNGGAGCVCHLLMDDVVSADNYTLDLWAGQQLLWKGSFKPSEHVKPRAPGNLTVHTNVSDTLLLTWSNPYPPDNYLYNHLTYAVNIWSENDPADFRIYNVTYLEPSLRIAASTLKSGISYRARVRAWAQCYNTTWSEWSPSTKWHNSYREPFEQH

[2] = target: T1, human IL-4Rα (interleukin 4 receptor …); test: indirect ELISA on plate-coated recombinant human IL-4Rα (2 ug/mL), anti-human IgG Fc-HRP, A450
[3] = target: T1, human IL-4Rα (interleukin 4 receptor …); test: SPR, Biacore 8K+ multi-cycle capture kinetics; antibody captured on goat anti-human polyclonal surface, human IL-4Rα as analyte, 25 C, 1:1 model
[4] = target: T2, IL-4Rα on human primary cells (primary B cells, whole blood B and T cells, PBMCs) (human, UniProt P24394 26-825); test: cell-based or functional assay
T2 sequence (looked up): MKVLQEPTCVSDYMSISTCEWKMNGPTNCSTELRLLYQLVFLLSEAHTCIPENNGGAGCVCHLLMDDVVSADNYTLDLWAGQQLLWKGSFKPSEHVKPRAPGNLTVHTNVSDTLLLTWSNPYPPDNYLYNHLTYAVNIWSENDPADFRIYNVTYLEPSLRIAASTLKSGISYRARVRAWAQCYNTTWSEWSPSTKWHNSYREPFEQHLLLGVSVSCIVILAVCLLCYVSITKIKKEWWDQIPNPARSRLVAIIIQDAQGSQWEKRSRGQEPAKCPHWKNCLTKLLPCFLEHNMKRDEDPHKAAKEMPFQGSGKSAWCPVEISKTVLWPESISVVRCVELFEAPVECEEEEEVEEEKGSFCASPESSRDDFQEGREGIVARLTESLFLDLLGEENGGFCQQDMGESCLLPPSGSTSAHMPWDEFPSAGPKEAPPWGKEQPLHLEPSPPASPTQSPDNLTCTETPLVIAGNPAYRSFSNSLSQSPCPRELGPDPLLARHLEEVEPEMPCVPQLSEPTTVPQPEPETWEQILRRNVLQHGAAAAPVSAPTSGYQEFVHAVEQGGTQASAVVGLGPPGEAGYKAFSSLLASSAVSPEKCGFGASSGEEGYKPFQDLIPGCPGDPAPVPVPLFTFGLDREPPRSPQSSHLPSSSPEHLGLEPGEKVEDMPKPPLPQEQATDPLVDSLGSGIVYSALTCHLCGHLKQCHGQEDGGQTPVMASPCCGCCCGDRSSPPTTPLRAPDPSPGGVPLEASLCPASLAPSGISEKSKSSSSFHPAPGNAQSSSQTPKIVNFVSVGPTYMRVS

[5] = target: T1, human IL-4Rα (interleukin 4 receptor …); test: indirect ELISA on plate-coated recombinant human IL-4Rα (2 ug/mL), anti-human IgG Fc-HRP, A450; remark: listed apart in the source
[6] = target: T1, human IL-4Rα (interleukin 4 receptor …); test: cell-based or functional assay

B1: AB-9c (antibody, human IgG4 S228P, kappa)
heavy: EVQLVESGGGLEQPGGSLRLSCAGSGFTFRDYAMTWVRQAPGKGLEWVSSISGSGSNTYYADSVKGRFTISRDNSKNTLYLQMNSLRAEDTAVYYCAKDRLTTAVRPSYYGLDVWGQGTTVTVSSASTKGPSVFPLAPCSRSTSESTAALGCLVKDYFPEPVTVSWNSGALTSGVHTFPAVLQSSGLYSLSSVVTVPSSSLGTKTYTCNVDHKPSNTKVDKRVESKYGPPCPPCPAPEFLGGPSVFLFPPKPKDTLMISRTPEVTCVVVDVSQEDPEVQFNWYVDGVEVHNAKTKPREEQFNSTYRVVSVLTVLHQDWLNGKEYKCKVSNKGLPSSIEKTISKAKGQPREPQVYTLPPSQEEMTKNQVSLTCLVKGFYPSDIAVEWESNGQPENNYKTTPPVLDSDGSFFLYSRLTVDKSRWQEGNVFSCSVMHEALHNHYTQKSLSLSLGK
light: DIVMTQSPLSLPVTPGEPASISCRSSQSLLYSLGYNYLDWYLQKSGQSPQLLIYLASNRASGVPDRFSGSGSGTDFTLKISRVEAEDVGFYYCMQSLQTPYTFGQGTKLEIKRTVAAPSVFIFPPSDEQLKSGTASVVCLLNNFYPREAKVQWKVDNALQSGNSQESVTEQDSKDSTYSLSSTLTLSKADYEKHKVYACEVTHQGLSSPVTKSFNRGEC
notes: hIgG4 WT, kappa
- Kd [1]: 0.63 nM
- EC50 (read off the curve) [2]: ~0.02 nM

B2: AB-13c (antibody, human IgG4 S228P, kappa)
heavy: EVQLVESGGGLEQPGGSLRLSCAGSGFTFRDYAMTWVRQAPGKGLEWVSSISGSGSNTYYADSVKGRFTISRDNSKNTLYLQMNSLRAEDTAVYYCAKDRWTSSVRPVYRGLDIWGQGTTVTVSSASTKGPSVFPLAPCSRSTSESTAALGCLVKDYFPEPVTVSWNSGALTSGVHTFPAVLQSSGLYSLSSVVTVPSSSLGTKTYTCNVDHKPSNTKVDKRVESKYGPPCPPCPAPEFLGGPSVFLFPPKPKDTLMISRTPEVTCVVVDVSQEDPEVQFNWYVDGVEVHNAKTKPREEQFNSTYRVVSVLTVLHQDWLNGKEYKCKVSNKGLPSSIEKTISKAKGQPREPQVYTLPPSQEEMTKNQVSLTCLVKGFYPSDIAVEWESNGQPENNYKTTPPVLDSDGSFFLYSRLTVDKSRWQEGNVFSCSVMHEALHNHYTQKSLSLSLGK
light: B1 light with L33H, Q98Y
notes: hIgG4 wild type, kappa
- Kd [3]: 0.0266 nM
- koff [3]: 2.22e-05 s⁻¹
- kon [3]: 836000 M⁻¹ s⁻¹
- Kd [1]: ≤ 0.12 nM
- EC50 (read off the curve) [2]: ~0.05 nM
- Inhibition of CD23 Expression by Primary B cells (IC50), Donor 13 [4]: 24.9 nM
- Inhibition of CD23 Expression by Primary B cells (IC50), Donor 52 [4]: 23 nM
- Inhibition of CD23 Expression by Primary B cells (IC50), Donor 53 [4]: 26.2 nM
- Inhibition of CD23 Expression by Primary B cells (IC50), Donor 56 [4]: 25.8 nM

B3: AB-9d (antibody, human IgG1, kappa)
heavy chain: not shown
light chain: B1 light
notes: hIgG1 ('d')
- EC50 (read off the curve) [5]: ~0.02 nM

B4: AB-1d (antibody, human IgG1, kappa, V domains shown)
VH: EVQLVESGGGLEQPGGSLRLSCAGSGFTFSDYAMTWVRQAPGKGLEWVSSISGSGGNTYYADSVKGRFTISRDNSKNTLYLQMNSLRAEDTAVYYCAKDALTIAIRPYYYGLDVWGQGTTVTVSS
VL: DIVMTQSPLSLPVTPGEPASISCRSSQSLDYSYGYNYLDWYLQKSGQSPQLLIYLASNRASGVPDRFSGSGSGTDFTLKISRVEAEDVGFYYCMQSLSTPYTFGQGTKLEIKR
notes: hIgG1 ('d')
- binding result [5]: binds

B5: AB-12d (antibody, human IgG1, kappa)
heavy chain: not shown
light chain: B1 light with L33Q, Q98F
- IC50 (read off the curve) [6]: ~0.4 nM
